Data from patent publication US7491501B2, “Methods for identifying modulators of intracellular aggregate formation” (Auburn University, priority 2003, dated 2009).

Columns and labels:
p62-TRAF6 interaction = biological target: T1, p62-TRAF6 interaction (Homo sapiens, UniProt Q9Y4K3); test: p62-TRAF6 interaction in HEK cells after IL-1 stimulation, p62 UBA domain pull-down (FIG. 2C); format: cell-based; settings: increasing doses of peptide
T1 construct: endogenous in cells; host or cells: HEK 293
T1 sequence (Q9Y4K3 1-522): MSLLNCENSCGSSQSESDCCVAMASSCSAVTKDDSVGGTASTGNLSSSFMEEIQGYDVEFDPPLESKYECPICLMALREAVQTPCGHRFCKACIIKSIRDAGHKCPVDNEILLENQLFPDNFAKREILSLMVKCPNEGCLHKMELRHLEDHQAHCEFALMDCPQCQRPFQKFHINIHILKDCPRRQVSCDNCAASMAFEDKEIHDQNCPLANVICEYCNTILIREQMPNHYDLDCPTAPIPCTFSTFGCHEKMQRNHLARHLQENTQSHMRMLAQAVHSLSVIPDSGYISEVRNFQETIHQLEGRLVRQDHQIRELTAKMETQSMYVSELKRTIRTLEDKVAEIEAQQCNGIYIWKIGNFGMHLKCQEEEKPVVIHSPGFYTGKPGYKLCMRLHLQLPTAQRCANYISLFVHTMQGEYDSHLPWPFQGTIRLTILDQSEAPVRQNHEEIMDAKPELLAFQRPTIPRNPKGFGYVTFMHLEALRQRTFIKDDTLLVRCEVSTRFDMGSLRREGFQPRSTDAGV
Procedure: GST Pull-Down Assay—Glutathione beads coupled with p62 UBA domain were washed three times with binding buffer (20 mM Tris-HCl, pH 7.6, 50 mM NaCl, 0.1% Nonidet P-40, […], 1 mM phenylmethylsulfonyl fluoride) containing 25 μg/ml of BSA. For each mg of lysate, 2.5 μg of GST-UBA domain was added and rotated for 2 h at room temperature. The beads were washed 3 times with binding buffer and boiled in SDS-PAGE sample buffer, followed by separation employing a 7.5% SDS-gel, and western blotting with appropriate antibody.
A peptide (plain type, SEQ ID NO. 6) containing the TRAF6-binding motif present in p62 (underlined type) along with the hydrophobic sequence containing the cell-permeable motif (italicized type) from Kaposi fibroblast growth factor signal sequence was synthesized ([…]-[…]) (SEQ ID NO. 4) or a control peptide with mutant amino acids in the interaction motif (AAVA […]-[…])(SEQ ID NO. 5). […] HEK cells were treated or not with increasing doses of control or TRAF6 inhibitory peptide, followed by stimulation with IL-1. Lysates were prepared and included in a pull-down employing the UBA domain of p62. Should the p62-UBA domain bind K63-polyubiquitinated substrate proteins, a dose-dependent reduction in interaction of the lysates would occur with lysates prepared from cells pretreated with TRAF6 inhibitory peptide. In fact, this is what was found (FIG. 2C).

[1] = biological target: T2, interaction of p62 with TRAF6 (Rattus norvegicus, UniProt B5DF45); test: TRAF6 immunoprecipitation and Western blot for p62/UbcH7 in NGF-stimulated PC12 cells; format: cell-based; settings: NGF 15 min
T2 construct: followed by NGF stimulation for 15 min and immunoprecipitation of TRAF6 followed by Western blotting for p62; endogenous in cells; host or cells: PC12
T2 sequence (B5DF45 whole entry): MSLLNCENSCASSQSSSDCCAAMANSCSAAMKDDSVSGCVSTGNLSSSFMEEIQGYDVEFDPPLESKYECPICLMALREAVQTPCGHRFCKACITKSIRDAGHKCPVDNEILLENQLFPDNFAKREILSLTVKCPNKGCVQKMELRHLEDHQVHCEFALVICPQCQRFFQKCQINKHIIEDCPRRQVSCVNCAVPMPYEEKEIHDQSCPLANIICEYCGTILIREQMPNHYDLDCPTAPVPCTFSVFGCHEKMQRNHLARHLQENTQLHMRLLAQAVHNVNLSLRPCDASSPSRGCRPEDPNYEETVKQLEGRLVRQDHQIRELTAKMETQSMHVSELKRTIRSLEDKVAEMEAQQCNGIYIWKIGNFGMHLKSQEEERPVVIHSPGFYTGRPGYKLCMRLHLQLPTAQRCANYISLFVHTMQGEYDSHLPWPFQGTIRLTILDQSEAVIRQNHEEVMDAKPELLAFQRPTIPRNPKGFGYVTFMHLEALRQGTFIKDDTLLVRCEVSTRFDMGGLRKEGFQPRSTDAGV
T2 sequence (D3Z8W5 1-154 partner): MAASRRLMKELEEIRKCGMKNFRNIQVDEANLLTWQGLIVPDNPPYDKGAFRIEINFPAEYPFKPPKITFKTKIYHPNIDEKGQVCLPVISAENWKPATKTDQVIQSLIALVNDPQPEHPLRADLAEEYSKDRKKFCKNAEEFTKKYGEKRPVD
Procedure: Immunoprecipitation and Western blotting—Each mg of lysate/inclusion bodies was incubated with 41 ng of primary antibody at 4° C. for 3 h and then with 50 μl of 50% agarose-coupled secondary antibody for 2 more hours at 4 C. The beads were washed three times with lysis buffer, eluted by adding SDS-PAGE sample buffer, and subjected to SDS-PAGE in 7.5-12% acrylamide gels. Immunoblotting was performed on nitrocellulose membranes and analyzed by western blotting with ECL detection reagents (Amersham Biosciences).
The region spanning amino acids 225-251 is necessary for the interaction of p62 with TRAF6. The peptide containing TRAF6 binding motif in p62 along with the hydrophobic sequence containing the cell-permeable motif from Kaposi fibroblast growth factor sequence, […]-[…] (SEQ ID NO. 4) and control peptide […]-[…] (SEQ ID NO. 5) was synthesized. As a preliminary step, PC12 cells were pretreated with various concentrations of peptide for 5 h, followed by NGF stimulation for 15 min and immunoprecipitation with TRAF6 and western blotted with p62. […] The peptide was then tested for its ability to block NGF-induced tau polyubiquitination (FIG. 13A).
The peptide containing the TRAF6-binding motif in p62 along with the hydrophobic sequence containing the cell-permeable motif from Kaposi fibroblast growth factor signal sequence […]-[…] (SEQ ID NO. 4) and control peptide […]-[…] (SEQ ID NO. 5) was synthesized. As a preliminary step, PC12 cells were pretreated with different concentrations (75-300 μM) of TRAF6 peptide for 5 hours followed by NGF stimulation for 15 min and immunoprecipitation of TRAF6 followed by Western blotting for p62. […] To address whether TRAF6 peptide affects the interaction of p62 and UbcH7 with TRAF6, PC12 cells were treated with or without 150 μM of control peptide or TRAF6 peptide for 5 hours and then stimulated with NGF for 15 min. By immunoprecipitating TRAF6, TRAF6 peptide (150 μM) abrogated the interaction of p62 with TRAF6, but not UbcH7, upon NGF treatment (FIG. 8A). […] The ability of the TRAF6 peptide to impair the ubiquitination process was investigated. Lysates recovered from NGF treated cells were immunoprecipitated with TrkA receptor antibody and blotted for ubiquitin or the receptor (FIG. 15B). […] The ability of the peptide to interrupt the formation of the functional TrkA-p62-TRAF6-UbcH7 complex on NGF stimulation as well was also investigated. TrkA was immunoprecipitated and blotted for the presence of each protein in the complex (FIG. 15C).

**Q.** With “AAVALLPAVLLALLAP-ESASGPSEDPSVNFLK (AAVALLPAVLLALLAPESASGPSEDPSVNFLK; artificial sequence for cell permeable peptide) [TRAF6 peptide]” as the substance, how does the p62-TRAF6 interaction (p62-TRAF6 interaction) read?
**A.** The p62-TRAF6 interaction was “blocked p62-TRAF6 interaction in a dose-dependent fashion”.

**Q.** And the “interaction of UbcH7 with TRAF6” value ([1]; 150 μM peptide 5 hours)?
**A.** The value was “not”.

**Q.** What about the “interaction of p62 with TRAF6” value ([1]; 150 μM peptide 5 hours) of the same substance?
**A.** The value was “completely abrogated”.

**Q.** What about the “optimum dose to block the interaction of p62 with TRAF6” value ([1]; 75-300 μM peptide 5 hours, not shown) of the same substance?
**A.** The value was 150 µM.

**Q.** And the “concentration of peptide found to block TRAF6 interaction with p62” value ([1]; peptide 5 h, not shown)?
**A.** The value was “One hundred and fifty”.
